Molecular target: the molecule itself
Experiment: SEC-MALS

B1: CDTb construct lacking the C-terminal RBD2 (residues 212 to 751; CDTb∆RBD2) (domain or fragment)
chain: SDWEDEDLDTDNDNIPDSYERNGYTIKDLIAVKWEDSFAEQGYKKYVSNYLESNTAGDPYTDYEKASGSFDKAIKTEARDPLVAAYPIVGVGMEKLIISTNEHASTDQGKTVSRATTNSKTESNTAGVSVNVGYQNGFTANVTTNYSHTTDNSTAVQDSNGESWNTGLSINKGESAYINANVRYYNTGTAPMYKVTPTTNLVLDGDTLSTIKAQENQIGNNLSPGDTYPKKGLSPLALNTMDQFSSRLIPINYDQLKKLDAGKQIKLETTQVSGNFGTKNSSGQIVTEGNSWSDYISQIDSISASIILDTENESYERRVTAKNLQDPEDKTPELTIGEAIEKAFGATKKDGLLYFNDIPIDESCVELIFDDNTANKIKDSLKTLSDKKIYNVKLERGMNILIKTPTYFTNFDDYNNYPSTWSNVNTTNQDGLQGSANKLNGETKIKIPMSELKPYKRYVFSGYSKDPLTSNSIIVKIKAKEEKTDYLVPEQGYTKFSYEFETTEKDSSNIEITLIGSGTTYLDNLSITELNSTPEILDEP
stoichiometry N: 7
